How the values were obtained:
[1] = target: naturally cleaved, untagged human BAFF H218A (human); experiment: SEC; concentrated 293 T supernatants of naturally cleaved BAFF fractionated on Superdex 200 Increase; fractions blotted with anti-BAFF antibodies; oligomer seen in the fractions
[2] = target: His-tagged human BAFF (60-mer) (human) (UniProt Q9Y275); experiment: SEC; purified His-tagged BAFF alone on Superdex 200 Increase, against molecular weight standards
[3] = target: naturally cleaved, untagged human BAFF E223K (human); experiment: SEC; concentrated 293 T supernatants of naturally cleaved BAFF fractionated on Superdex 200 Increase; fractions blotted with anti-BAFF antibodies; oligomer seen in the fractions
[4] = target: T1, FLAG-tagged human BAFF 3-mer, E223K (human, UniProt Q9Y275 134-285, E223K); experiment: ELISA; direct binding: BAFFR-Fc, BCMA-Fc or TACI-Fc (human or mouse) adsorbed at 1 µg/ml; FLAG-tagged BAFF 3-mers of the corresponding species 1 h at 37 °C in PBS, 0.4% milk, 0.05% Tween-20; biotinylated anti-FLAG detection; conditions: both partners purified
T1 construct: human BAFF (TNFSF13B), soluble form; also called FLAG-hBAFF E223K; source: 293 T cells, transient transfection, supernatant, size fractionated by gel filtration (3-mer fractions 15 + 16)

[5] = target: T2, FLAG-tagged human BAFF 3-mer, H218A (human, UniProt Q9Y275 134-285, H218A); experiment: as above; conditions: both partners purified
T2 construct: human BAFF (TNFSF13B), soluble form; also called FLAG-hBAFF H218A; source: 293 T cells, transient transfection, supernatant, size fractionated by gel filtration (3-mer fractions 15 + 16)

[6] = target: T3, Fc-human BAFF, wild type (human, UniProt Q9Y275); experiment: ELISA; Fc-hBAFF (WT or H218A) coated at 1 µg/ml; soluble Fc-BAFF (WT or H218A) titrated, then biotinylated Fab of belimumab (50 µl of 100 ng/ml); streptavidin-peroxidase detection; relative affinity; conditions: both partners purified
T3 construct: human BAFF (TNFSF13B); called an intrinsically cross-linked BAFF; also called Fc-hBAFF WT; Fc-BAFF

[7] = target: T4, FLAG-tagged mouse BAFF 3-mer, wild type (mouse, UniProt Q9WU72 127-309); experiment: ELISA; direct binding: BAFFR-Fc, BCMA-Fc or TACI-Fc (human or mouse) adsorbed at 1 µg/ml; FLAG-tagged BAFF 3-mers of the corresponding species 1 h at 37 °C in PBS, 0.4% milk, 0.05% Tween-20; biotinylated anti-FLAG detection; conditions: both partners purified
T4 construct: mouse BAFF (Tnfsf13b), soluble form; also called FLAG-mBAFF WT; mBAFF; source: 293 T cells, transient transfection, supernatant, size fractionated by gel filtration (3-mer fractions 13 + 14)

[8] = target: T5, FLAG-tagged mouse BAFF 3-mer, H242A (mouse, UniProt Q9WU72 127-309, H242A); experiment: as above; conditions: both partners purified
T5 construct: mouse BAFF (Tnfsf13b), soluble form; also called FLAG-mBAFF H242A; source: 293 T cells, transient transfection, supernatant, size fractionated by gel filtration (3-mer fractions 13 + 14)
T5 sequence (looked up): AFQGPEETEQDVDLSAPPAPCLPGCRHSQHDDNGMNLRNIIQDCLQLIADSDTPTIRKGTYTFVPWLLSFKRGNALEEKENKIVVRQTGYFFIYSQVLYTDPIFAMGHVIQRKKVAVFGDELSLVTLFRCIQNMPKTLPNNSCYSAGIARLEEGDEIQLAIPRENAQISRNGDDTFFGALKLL

[9] = target: T6, FLAG-tagged mouse BAFF 3-mer, E247K (mouse, UniProt Q9WU72 127-309, E247K); experiment: as above; conditions: both partners purified
T6 construct: mouse BAFF (Tnfsf13b), soluble form; also called FLAG-mBAFF E247K; source: 293 T cells, transient transfection, supernatant, size fractionated by gel filtration (3-mer fractions 13 + 14)
T6 sequence (looked up): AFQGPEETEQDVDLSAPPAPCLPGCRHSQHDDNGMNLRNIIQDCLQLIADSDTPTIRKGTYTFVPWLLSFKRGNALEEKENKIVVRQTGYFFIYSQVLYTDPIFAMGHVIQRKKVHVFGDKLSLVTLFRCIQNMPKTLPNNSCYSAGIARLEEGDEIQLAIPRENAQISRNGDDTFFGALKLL

“naturally cleaved, untagged human BAFF H218A (ligand)” showed a stoichiometry N [1] of 3.

“His-tagged human BAFF (60-mer) (from UniProt Q9Y275 134-285) (ligand)” gave a stoichiometry N [2] of 60.

Work on “naturally cleaved, untagged human BAFF E223K (ligand)” yielded a stoichiometry N [3] of 3.

B1: human BCMA-Fc (Fc fusion, UniProt Q02223 1-54, looked up)
chain: MLQMAGQCSQNEYFDSLLHACIPCQLRCSSNTPPLTCQRYCNASVTNSVKGTNA
notes: human BCMA (TNFRSF17); also called TNFRSF17
B1: binds [4]; binds [5].

B2: Fab fragment of belimumab (Fab, V domains shown)
VH: QVQLQQSGAEVKKPGSSVRVSCKASGGTFNNNAINWVRQAPGQGLEWMGGIIPMFGTAKYSQNFQGRVAITADESTGTASMELSSLRSEDTAVYYCARSRDLLLFPHHALSPWGRGTMVTVSS
VL: SSELTQDPAVSVALGQTVRVTCQGDSLRSYYASWYQQKPGQAPVLVIYGKNNRPSGIPDRFSGSSSGNTASLTITGAQAEDEADYYCSSRDSSGNHWVFGGGTELTVL
notes: heavy-chain part of the Fab; as the light chain of m24; also called belimumab Fab; source: papain digestion of belimumab, flowthrough of Protein A, size-fractionated (Superdex 200 Increase)
B2: binds [6].

B3: mouse BAFFR-Fc (Fc fusion, UniProt Q9D8D0 1-71, looked up)
chain: MGARRLRVRSQRSRDSSVPTQCNQTECFDPLVRNCVSCELFHTPDTGHTSSLEPGTALQPQEGSALRPDVA
notes: mouse BAFF receptor (BAFFR); also called mBAFFR-Fc
B3: binds [7]; binds [8]; binds [9].

MAQQCFHSEYFDSLLHACKPCHLRCSNPPATCQPYCDPSVTSSVKGTYT (Fc fusion, UniProt O88472 1-49, looked up, mouse BCMA) [mouse BCMA-Fc]: binds [7]; binds [8]; binds [9].

B4: mouse TACI-Fc (Fc fusion, UniProt Q9ET35 1-128, looked up)
chain: MAMAFCPKDQYWDSSRKSCVSCALTCSQRSQRTCTDFCKFINCRKEQGRYYDHLLGACVSCDSTCTQHPQQCAHFCEKRPRSQANLQPELGRPQAGEVEVRSDNSGRHQGSEHGPGLRLSSDQLTLYC
notes: mouse TACI
B4: binds [7]; binds [8]; binds [9].
